Here are results for 41 sequences from the nanobody polyreactivity screen of Harvey et al. (2022).

This data set in a line: yeast display, Sf9 membrane polyspecificity reagent, FACS + sequencing; frameworks hold sequencing errors. Put shortly: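 Polyreactivity labels are assigned by the sorting gate from which each nanobody was recovered. The gates were low and high (top ~1%), set on anti-HA fluorescence for expression and streptavidin fluorescence for reagent binding. Before sorting, galactose-induced (36–48 hours) yeast display cells were stained for 1 hour at 4 °C with 10% biotinylated, detergent-solubilized Sf9 membrane reagent.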
Turning to “QVQLVDSGGGLVQAGGSLRLICAASGSTLGQYAMGWYRQAPGKERELVAAITARTGRTYYADSVKGRFTISRDNAKNTVYLQMNSMKPEDTAVYYCASVTFSYQDYYWGQGTQVTVSS”, the “polyreactivity (PSR sort gate)” value is reported as “high polyreactivity”.
As to “QVQLVDSGGGLVQAGGSLRLICPASGSIFSTYAMGWYRQAPGKERELLAAINRGTSTNYADSVKGRFTISRDNAKNTVYLQMNCLKPEDTAVYYCAAYYRGRYGPRRSEYWGQGTQVTVSS”, the “polyreactivity (PSR sort gate)” value is recorded as “high polyreactivity”.
With “QVQLVDSGGGLVQAGGSLRLSCAASAFIFTRYAMGWYRQAPGKERELVAAISWIGTSTYYADSVKGRFTISRDNAKNTVYLQMNSLKPEDTAVYYCAKRSTSQSLQGVYWGLGTQVTVSS” the entry was “high polyreactivity”; with “QVQLVDSGGGLVQAGGSLRLSCAASGFIFKYYAMGWYRQEPGKERELVAAITIGGSTNYADSVKGRFTISRDNAKNTVYLQMNSLTPEDTAVYSCAADVQERYHRAWYDYWGQGTQVTVSS”, “low polyreactivity”.
With “QVQLVDSGGGLVQAGGSLRLSCAASGFIFQANAMGWYRQAPGKERELVAAIDDGDSTYADSVKGRFTISRDNAKNTVYLQMNSLKPEDTAVYYCATRRNRSYDYWGQGTLVTVSS” the entry was “low polyreactivity”; with “QVQLVDSGGGLVQAGGSLRLSCAASGFIFSSYAMVWYRQAPGKERELVAAISRSGGYTYYADSVKGRFTISRDNAKNTVYFQMNSLNAEDTAVYYCATRSYMPGVRRGYDYWGKGTQVTVSS”, “high polyreactivity”; with “QVQLVDSGGGLVQAGGSLRLSCAASGFILSRYTMGWYRQAPGKERELVATISSGGRTYYADSVKGRFTISRDNAKNTVYLQMNSLKPEDTAVYYCAAAYTYWRISGNRYLYDYWGQGTQVTVSS”, “high polyreactivity”.
As for “QVQLVDSGGGLVQAGGSLRLSCAASGFNFVFNAMGWYRQAPGKERELVAAINGGDITNYADSVKGRFTISRDNAKNTVYLQMNSLKPEDTAVYYCAADGEYSLWTGYDYDYWGQGTQVTVSS”, the entry is “low polyreactivity”; as for “QVQLVDSGGGLVQAGGSLRLSCAASGFTFSAYAMGWYRQAPGKERELVAAISWSGSRTYYADSVKGRFTISRDNAKNTVYLQMNSLKPEDTAVYYCAKEPYDTFGFYEYDYWGQGTQVTVSS”, “low polyreactivity”.
As for “QVQLVDSGGGLVQAGGSLRLSCAASGFTFSTNAMGWYRQAPGKERELVAGITSSGGNTYYADSVKGRFTISRDNAKNTVYLQMNSLKPEDTAVYYCAKRRNYVAYDYWGQGTQVTVSS”, the “polyreactivity (PSR sort gate)” value is recorded as “high polyreactivity”.
As for “QVQLVDSGGGLVQAGGSLRLSCAASGFTFVYYVMGWYRQAPGKERQLVAAINAGGGSTYYADSVKGRFTISRDIAKYTVYLQMNSLKPEDTAVYYCNARVRVRLGRNWSSYYYWGQGTQVTVSS”, the entry is “high polyreactivity”; as for “QVQLVDSGGGLVQAGGSLRLSCAASGFTFYLNTMGWYRQAPGKERELVAAIDLSDGTTYYADSVKGRFTISRDNAKNTVYLQMNSLKPEDTAVYYCAAESYEEWTSSGLDWTDDYWGQGTQVTVSS”, “high polyreactivity”; as for “QVQLVDSGGGLVQAGGSLRLSCAASGGIFGYGMGWYRQAPGKERELVAAITRSGGSTSYADSVKGRFTISRDNAKYTVYLQMNSVKPEDTAVYFCASRTRYSRYKSGYWGQGTQVTVSS”, “high polyreactivity”.
Regarding “QVQLVDSGGGLVQAGGSLRLSCAASGGIFRQNVMGWYRQAPGKERELVAAISRRGGITYYAEAVKGRFTISRDNAKNTVYLQMNSLKPEDTAVYYCNKKPTWDYSYWGQGTQVTVSS”, the “polyreactivity (PSR sort gate)” value is “high polyreactivity”.
With “QVQLVDSGGGLVQAGGSLRLSCAASGIIFHFNDLGLYIQAPGKERELVAAIDSTGSTNYSDSVKGRYTISRDNAKITVYLQLNRVKPEDTAVYNCAVLNHRVDAVLTRYYYWGQGTKVTVSS” the entry was “low polyreactivity”; with “QVQLVDSGGGLVQAGGSLRLSCAASGIIFRAYAMGWSRAAPGKERELVAAISRRGSTTYYADSVKGRFTISRDNAKNTVYLQMNSLKPEDTAVYFCAADYAGPTGFDYWGQGTQVTVSS”, “high polyreactivity”.
As for “QVQLVDSGGGLVQAGGSLRLSCAASGIIFSVYAMGWYRQAPGKERELVAAITYSGGSTYYADSVKGRFTISRDNAKNTVYLQMNSLKPEDTAVYYCNAYRYNALPWRYVGYDYWGQGTQVTVSS”, the entry is “low polyreactivity”; as for “QVQLVDSGGGLVQAGGSLRLSCAASGIIIKLYAMGWYRQAPGKEREFVATITKTGGRTYYADSVKGRFTISRDNAKNTVYLQMNSLKPEDTAVYYCAARRVNGKMYYWGQGTQVTVSS”, “high polyreactivity”; as for “QVQLVDSGGGLVQAGGSLRLSCAASGINFVWNVMGWYRQAPGKERELVADITSGGRTHYADSVKGRFTISRDNAKNTVYVQMNSLKPDDTAVYYCAARKYWRYQNYDYWGQGTQVTVSS”, “low polyreactivity”.
As for “QVQLVDSGGGLVQAGGSLRLSCAASGITFNLYAMGWYRQAPGKERELVAAISNVGSTKYADSVKGRFTISRDNAKNTVYLQMTSLKPEDTAVYYCAADWDRYPDYDYWGQGTQVTVSS”, the entry is “low polyreactivity”; as for “QVQLVDSGGGLVQAGGSLRLSCAASGITFVFYAMGWYRQAPGKERELVAAISSSGGSTYYADSVKGRFTISRDNAKNTVYLQMNSLKPEDTAVYYCNAKVFSYQGAVRYDYWGQGTQVTVSS”, “high polyreactivity”.
For “QVQLVDSGGGLVQAGGSLRLSCAASGNTFVTYTMGWYRQAPGKERELVADISSGGSTYYADSVKGRFTISRDNAKNTVYLQMYSLKPEDTAVYYCAVLQAVFRSYYIYHRYYWGQGTKVTVSS”, the “polyreactivity (PSR sort gate)” value is listed as “high polyreactivity”.
For the sequence “QVQLVDSGGGLVQAGGSLRLSCAASGRIFGPYAMVWYRQAPGKERELVASISYSGGSTYYADSVKGRFTISRDNAKNTVYLQMNSLKPEDTAVYYCAKGGYWGGYNYWGQGTQVTVSS”, the “polyreactivity (PSR sort gate)” value is “low polyreactivity”.
As for “QVQLVDSGGGLVQAGGSLRLSCAASGRIFLYNGMGWYRQAPGKERELVAGIITGGNTNYADSVKGRFTISRDNAKNTVYLQMNSLKPEDTAVYYCAAEVIVYGWSPDYDYWGQGTQVTLSS”, the entry is “low polyreactivity”; as for “QVQLVDSGGGLVQAGGSLRLSCAASGRIFQQNAMGWYRQAPGKERELVAAISWRGTSTYYADSVKGRFTISRDNAKNTVYLQMNSLKPEDTAVYYCAAQGYAYTLVAKVYRWYEYAYWGQGTQVTVSS”, “high polyreactivity”.
As for “QVQLVDSGGGLVQAGGSLRLSCAASGRIFRRYTMGWYRQAPGKERELVAAISSGGGTNYADSVKGRFSISRDNAKNTVYLQMNSLKPEDTAVYYCNARSWLSRGYGYWGQGTQVTVSS”, the entry is “high polyreactivity”; as for “QVQLVDSGGGLVQAGGSLRLSCAASGRIFRSYAMGWYRQAPGKERELVAGISSTGGNTYYADSVKGRFTISRDNAKNTVYLQMNSLKPEDTAVYYCAAYWFRGYKYWGQGTQVTVSS”, “high polyreactivity”; as for “QVQLVDSGGGLVQAGGSLRLSCAASGRIIWYKGMGWYTQATGKERELVAAINRGTSTYYADSVKGRFTISRDNAKNSVYLQMNSLKPEDTAVYYCAAGVSRWYYYWGQGTQVTVSS”, “high polyreactivity”.
As for “QVQLVDSGGGLVQAGGSLRLSCAASGRTFAYNVMGWYRQAPGKERELVAAISRGGGRTYYADSVKGRFTIARDNAKNTVYLQMNSLKPEDTAVYYCNAYLFFLNRVWSFDYWGQGTQVTVSS”, the entry is “high polyreactivity”.
On to “QVQLVDSGGGLVQAGGSLRLSCAASGRTFGGNAIGRYIQAPGKETELVAGINISGGSTNYADSVKGRFTISRDNAMNTVYLQMNSLKPEDTPVYYCNADTAVYAWDDDYWGQGTQVTVSS”, for which the “polyreactivity (PSR sort gate)” value is “low polyreactivity”.
With “QVQLVDSGGGLVQAGGSLRLSCAASGRTFQRNAMGWYRQAPGTERELVATITTNGGSTYYADSVKGRFTISRDNAKNTVYLQMNSLKPEDTAVYYCAAPFNPRVRTLRSVRMDYWGQGTQVTVSS” the entry was “low polyreactivity”.
For “QVQLVDSGGGLVQAGGSLRLSCAASGRTFRYYDMGWYRPAPGEVREFVAAITWRGGSTYYADSVKGRFTISRDNAKNTVYSQMNSLKPEDTAVYYCATDSLRLYGGKRDLYYWGQGTQVTVSS”, the “polyreactivity (PSR sort gate)” value is “low polyreactivity”.
As for “QVQLVDSGGGLVQAGGSLRLSCAASGRTFSLYAMGWYRQAPGKERELVATISQSGGSTYYADSVKGRFTISRDNAKNTVYLQMNSQKPEDTAVYNCAAGGIYLDYFGQGTQVTVSS”, the entry is “low polyreactivity”; as for “QVQLVDSGGGLVQAGGSLRLSCAASGRTFSVNAMGWYRQAPGKERELVAAISSAGSTNYADSVKGRFTISRDNAKNTVYLQMNSLKPEDTAVYYCAAGFSPGNYDAPTLAFDYWGQGTQVTLSS”, “low polyreactivity”.
With “QVQLVDSGGGLVQAGGSLRLSCAASGRTFTVYAMGWYRQAPGKERELVASISGSSGSTDYADSVKGRFTISRDNAKNTVYLQMNSLKPEDTAVYFCAKASSATRYVQLRQDYDYWGQGTQVTVSS” the entry was “low polyreactivity”; with “QVQLVDSGGGLVQAGGSLRLSCAASGRTFWIYAMGWYRPAPGKERELVAAISRGGSTYADSVKGRFTISRDNAKNTVYLQMNSLKPEDTAVYYCAASTPQYQYYYWGQGTQVTVSS”, “high polyreactivity”; with “QVQLVDSGGGLVQAGGSLRLSCAASGSIFAGYTMGGYRQAPGKEREFVAAISSSGGSTYYADSVKGRFTISRDNAKNTVYLQMNSLKPEDTAVSYCAVRGRISSVSRYGYWGQGTQVTVSS”, “high polyreactivity”.
In the case of “QVQLVDSGGGLVQAGGSLRLSCAASGSIFGLYAMGWYRQAPGKERELVAAISASGGSTYYADSVKGRFTISRDNAKNTVYLQMNSLKPEDTAVYYCAADLGYPTYDYWGQDTQVTVSS”, the “polyreactivity (PSR sort gate)” value is given as “low polyreactivity”.
As for “QVQLVDSGGGLVQAGGSLRLSCAASGSIFGSYVMGWYRQAPGKERELVAAISSSGASTYYADSVKGRFTISRDNAKNTVYLQMNSLKPEDTAVYYCAAGYVHLYYFHEYYWGQGTQVTVSS”, the entry is “high polyreactivity”; as for “QVQLVDSGGGLVQAGGSLRLSCAASGSIFHVNAMGWYRQAPGKERELVAAIRSDASTNYADSVKGRFTISRDNAKNTVYLQMNILKPEDTAVYYCNTAQLVSDEFDYSGQGTQVTVSS”, “low polyreactivity”.
On to “QVQLVDSGGGLVQAGGSLRLSCAASGSIFPDNAMGWYRQAPGKEWEFVAAINWSTGTTYYADSVKGRFTISRDNAKNTVYLQMNSLKPEDTAVYYFNASDQAKYDYWGQGTQVTVSS”, for which the “polyreactivity (PSR sort gate)” value is “low polyreactivity”.
